For the experiment, the system named is cumulus cells. The experiment in a line: Cumulus cell apoptosis in oocytectomized complexes (OOX) and COC, TUNEL with confocal microscopy. The class given is cell-based, Bovine. The following applies: for effect on incidence of cumulus cell apoptosis: OOX cultured with increasing doses (GDF-9 0-175 ng/ml, BMP-6 0-100 ng/ml, BMP-15 0-20% v/v, 5-50 DO), presence or absence of FSH. The procedure: Bovine ovaries were collected from local abattoir and transported to the laboratory in warm saline (30-35° C.). Cumulus-oocyte complexes (COC) were aspirated from antral follicles (2- to 8-mm diameter) using an 18-gauge needle and a 10-ml syringe containing ˜2 ml aspiration media (Hepes-buffered Tissue Cultured Medium-199: TCM-199, ICN Biochemicals, Irvine, Calif., USA) supplemented with 50 μg/ml kanamycin (Sigma-Aldrish, St. louis, Mo.), 4 mg/ml fatty acid-free bovine serum albumin (FAF-BSA) (ICPbio ltd, Auckland, NZ). Intact COC with compact cumulus vestment greater than five cell layers and evenly pigmented cytoplasm were selected under a dissecting microscope and washed twice in Hepes-buffered TCM-199 and once in corresponding culturing media.
The cytoplasm of each oocyte was microsurgically removed from the COC (oocytectomy) using a micromanipulator as described in Buccione et al (Buccione et al. (1990) Dev Biol 138, 16-25.). The resulting oocytectomized complex (OOX) consists of a hollow zona pellucida surrounded by several layers of intact CC.
Denuded oocytes (DO) were generated by removing CC from COC by vortexing for approximately 4 minutes in 2 ml H-TCM-199/BSA. Any remaining CC were removed by repeated passage of the oocytes through a fine-bore fire-polished glass pipette in H-TCM-199/BSA.
CC apoptoic DNA was detected using TUNEl (Roche Diagnostic, Penzberg, Germany) according to the manufacturer's instructions. Briefly, following culture COC and OOX complexes were washed twice in PBS (pH 7.4) containing 1% BSA, fixed in 4% paraformaldehyde in PBS (pH 7.4) overnight at 4° C. and washed twice with PBS/BSA before placing on Cell-Tak-coated coverslips (Beckton Dickinson Biosciences, Franklin lakes, N.J.). Complexes were then permeabilized in 0.11/u Triton X-100 in 0.1% sodium citrate for 1 hour at room temperature and washed 3 times in PBS/BSA. The complexes were then incubated in fluorescein-conjugated dUTP and terminal deoxynucleotide transferase (TUNEl reagents, Roche) for 1 hour at 37° C. in the dark. Positive controls were incubated in DNAse 1 (0.005 U/µl), which cleaves all DNA, for 20 minutes at room temperature and washed twice in PBS/BSA before TUNEl. Negative controls were incubated in fluorescein-dUTP in the absence of TdT. After TUNEl, complexes were washed twice in PBS/BSA and counterstained with propidium iodide 0.5 μg/ml (PI) plus RNase A (0.1 mg/ml) for 1 hour at room temperature in the dark to label all nuclei. Complexes were then washed twice in PBS/BSA and mounted with slight coverslip compression in VectaShield anti-bleaching solution (Vector labs, Burlingame, Calif.), and stored in the dark at 4° C. for confocal analysis.
Apoptosis in COC and OOX was visualised and quantified using confocal microscopy. Dual fluorescence emission from CC was detected using a Nikon C1 Confocal Scanning Head and a Nikon TE2000E microscope (Nikon, Tokyo, Japan). Simultaneous emission capture of the apoptotic signal (fluorescein, lacer excitation 488 nm, emission 510-530 nm) and the nuclear signal (propidium iodide, excitation lacer 532, emission 590-640 nm) was performed.
In order to generate an accurate representation of the overall apoptotic incidence for all complexes, the depth of each complex was measured through a Z series to divide the construct into three percentiles (optical Z plane sections) at 25%, 50% and 75%. These optical section images were acquired and saved as independent colour channels (green, apoptotic cumulus fluorescence and red, nuclear cumulus fluorescence). The captured images were then processed in Scanalytics IPlab software Version 3.6. (Scanalytics, Fairfax, Va.). Quantification of CC number (for each colour channel) was independently measured using a macro script utilizing an auto segmentation filter for each optical section percentile (3 optical “z”-plane sections for each complex).

B1: GDF-9: Recombinant mouse GDF-9 produced in-house in transfected 293H cells, partially purified by HIC (protein, UniProt Q07105 307-441, looked up)
Growth/differentiation factor …: GQKAIRSEAKGPLLTASFNLSEYFKQFLFPQNECELHDFRLSFSQLKWDNWIVAPHRYNPRYCKGDCPRAVRHRYGSPVHTMVQNIIYEKLDPSVPRPSCVPGKYSPLSVLTIEPDGSIAYKEYEDMIATRCTCR
Regarding B1, the “effect on incidence of cumulus cell apoptosis” value is given as “no significant effect”.

B2: BMP-15: Recombinant ovine BMP-15 produced in-house in transfected 293H cells, partially purified by hydrophobic interaction chromatography; dosed as % v/v (protein, UniProt Q9MZE2 269-393, looked up)
Bone morphogenetic protein 15: QAGSIASEVPGPSREHDGPESNQCSLHPFQVSFQQLGWDHWIIAPHLYTPNYCKGVCPRVLHYGLNSPNHAIIQNLVSELVDQNVPQPSCVPYKYVPISILLIEANGSILYKEYEGMIAQSCTCR
B2: the “effect on incidence of cumulus cell apoptosis” value is reported as “significantly reduced”. For the same molecule, the “effect on cumulus cell apoptosis” value (OOX treated with 100 ng/ml BMP-7 and/or 10% BMP-15) is “significantly reduced”. Further, under “OOX treated with DO, 10 ng/ml BMP-6 and/or 10% v/v BMP-15”, the “effect on CC apoptosis, test for additive effect” value was “significantly (P<0.001) decreased”.

For the origin of these results see patent US8530235B2, “Medium that supports culture of an oocyte and modulation of granulosa cell apoptosis” (Adelaide Research & Innovation Pty Ltd., priority 2005, dated 2013).
